In the supplement of paper PMC11780869:

Test system: Bacillus subtilis
Assay: cleaved RNA product abundance (RNA/gDNA barcode ratio) relative to median wild-type variant (ratio to wild type); higher = more accumulation of the downstream cleavage product
Conditions: cleavage site: cggR-gapA (positions -7 to +36 mutated)
Outline: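 Reporter mRNAs (truncated aprE or tetM) carrying barcoded, mutagenized RNase Y cleavage-site windows were made from oligos with a 9% error rate and integrated into the B. subtilis chromosome. Cultures grew in LB at 37°C from OD600 0.0003 to 0.3. Cleaved RNA was gel-selected, reverse transcribed and barcode-sequenced alongside genomic DNA barcodes, with UMI collapsing. Cleaved product abundance is the RNA:gDNA barcode ratio per variant, scaled to the median wild-type variant.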

[1] = experiment (reporter, strain, medium): exp 2b: truncated aprE reporter, strain BJT200
[2] = experiment (reporter, strain, medium): exp 4a: truncated aprE reporter, strain BJT201 with 2% xylose (RNase J1 expressed)
[3] = experiment (reporter, strain, medium): exp 6: tetM reporter, strain 168

ACAGACGAAGGAGCCGCAAAGTAGTTATTAAGGGATGAATAATCACTCAATATAAATATCTCTCACTTATTTAAA
cleaved RNA product abundance [1]: 0.11
cleaved RNA product abundance [2]: 0.183

ACAGACGAAGGAGCCGCAAAGTAGTTATTAAGGGATGAATAATCCATCAATATAAATATCTCTCACTTATTTAAA
cleaved RNA product abundance [1]: 0.187
cleaved RNA product abundance [2]: 0.161

ACAGACGAAGGAGCCGCAAAGTAGTTATTAAGGGATGAATAATCCCACAATATAAATATCTCTCACTTATTTAAA
cleaved RNA product abundance [1]: 0.199
cleaved RNA product abundance [2]: 0.223

ACAGACGAAGGAGCCGCAAAGTAGTTATTAAGGGATGAATAATCCCTAAATATAAATATCTCTCACTTATTTAAA
cleaved RNA product abundance [2]: 0.55

ACAGACGAAGGAGCCGCAAAGTAGTTATTAAGGGATGAATAATCCCTCAAAATAAATATCTCTCACTTATTTAAA
cleaved RNA product abundance [1]: 0.289
cleaved RNA product abundance [2]: 0.425
cleaved RNA product abundance [3]: 0.282

ACAGACGAAGGAGCCGCAAAGTAGTTATTAAGGGATGAATAATCCCTCAATACAAATATCTCTCACTTATTTAAA
cleaved RNA product abundance [2]: 0.0777

ACAGACGAAGGAGCCGCAAAGTAGTTATTAAGGGATGAATAATCCCTCAATATAAATATCTCTCACTTATTTAAA
cleaved RNA product abundance [1]: 0.953
cleaved RNA product abundance [2]: 0.98
cleaved RNA product abundance [3]: 1.09

ACAGACGAAGGAGCCGCAAAGTAGTTATTAAGGGATGAATAATCCCTCAATATAATTATCTCTCACTTATTTAAA
cleaved RNA product abundance [2]: 0.437

ACAGACGAAGGAGCCGCAAAGTAGTTATTAAGGGATGAATAATCCCTCAATATACATATCTCTCACTTATTTAAA
cleaved RNA product abundance [2]: 0.664

ACAGACGAAGGAGCCGCAAAGTAGTTATTAAGGGATGAATAATCCCTCAATATATATATCTCTCACTTATTTAAA
cleaved RNA product abundance [2]: 0.884

ACAGACGAAGGAGCCGCAAAGTAGTTATTAAGGGATGAATAATCCCTCAATCTAAATATCTCTCACTTATTTAAA
cleaved RNA product abundance [2]: 0.0783

ACAGACGAAGGAGCCGCAAAGTAGTTATTAAGGGATGAATAATCCCTCAATGTAAATATCTCTCACTTATTTAAA
cleaved RNA product abundance [2]: 0.13

ACAGACGAAGGAGCCGCAAAGTAGTTATTAAGGGATGAATAATCCCTCAATTTAAATATCTCTCACTTATTTAAA
cleaved RNA product abundance [2]: 0.221

ACAGACGAAGGAGCCGCAAAGTAGTTATTAAGGGATGAATAATCCCTCATTATAAATATCTCTCACTTATTTAAA
cleaved RNA product abundance [2]: 0.396

ACAGACGAAGGAGCCGCAAAGTAGTTATTAAGGGATGAATAATCCCTCCATATAAATATCTCTCACTTATTTAAA
cleaved RNA product abundance [1]: 0.299
cleaved RNA product abundance [2]: 0.487

ACAGACGAAGGAGCCGCAAAGTAGTTATTAAGGGATGAATAATCCCTGAATATAAATATCTCTCACTTATTTAAA
cleaved RNA product abundance [1]: 0.409
cleaved RNA product abundance [2]: 0.524

ACAGACGAAGGAGCCGCAAAGTAGTTATTAAGGGATGAATAATCCCTTAATATAAATATCTCTCACTTATTTAAA
cleaved RNA product abundance [1]: 0.869
cleaved RNA product abundance [3]: 0.729

ACAGACGAAGGAGCCGCAAAGTAGTTATTAAGGGATGAATAATCCTTCAATATAAATATCTCTCACTTATTTAAA
cleaved RNA product abundance [2]: 0.543

ACAGACGAAGGAGCCGCAAAGTAGTTATTAAGGGATGAATAATCTCTCAATATAAATATCTCTCACTTATTTAAA
cleaved RNA product abundance [2]: 0.802

ACAGACGAAGGAGCCGCAAAGTAGTTATTAAGGGATGAATAATTCCTCAATATAAATATCTCTCACTTATTTAAA
cleaved RNA product abundance [2]: 0.75

ACAGACGAAGGAGCCGCAAAGTAGTTATTAAGGGATGAATAGTCCCTCAATATAAATATCTCTCACTTATTTAAA
cleaved RNA product abundance [2]: 0.883

ACAGACGAAGGAGCCGCAAAGTAGTTATTAAGGGATGAATATTCCCTCAATATAAATATCTCTCACTTATTTAAA
cleaved RNA product abundance [1]: 0.716

ACAGACGAAGGAGCCGCAAAGTAGTTATTAAGGGATGGATAATCCCTCAATATAAATATCTCTCACTTATTTAAA
cleaved RNA product abundance [2]: 0.537

ACAGACGAAGGAGCCGCAAAGTAGTTATTAAGGGATTAATAATCCCTCAATATAAATATCTCTCACTTATTTAAA
cleaved RNA product abundance [2]: 1.14

ACAGACGAAGGAGCCGCAAAGTAGTTATTAAGGGTTGAATAATCCCTCAATATAAATATCTCTCACTTATTTAAA
cleaved RNA product abundance [2]: 0.364

ACAGACGAAGGAGCCGCAAAGTAGTTATTAAGGTATGAATAATCCCTCAATATAAATATCTCTCACTTATTTAAA
cleaved RNA product abundance [2]: 0.0907

ACAGACGAAGGAGCCGCAAAGTAGTTATTAAGTGATGAATAATCCCTCAATATAAATATCTCTCACTTATTTAAA
cleaved RNA product abundance [1]: 0.106
cleaved RNA product abundance [2]: 0.116

ACAGACGAAGGAGCCGCAAAGTAGTTATTAATGGATGAATAATCCCTCAATATAAATATCTCTCACTTATTTAAA
cleaved RNA product abundance [1]: 0.0916
cleaved RNA product abundance [2]: 0.166

ACAGACGAAGGAGCCGCAAAGTAGTTATTATGGGATGAATAATCCCTCAATATAAATATCTCTCACTTATTTAAA
cleaved RNA product abundance [2]: 0.445

ACAGACGAAGGAGCCGCAAAGTAGTTATTTAGGGATGAATAATCCCTCAATATAAATATCTCTCACTTATTTAAA
cleaved RNA product abundance [1]: 0.726
cleaved RNA product abundance [2]: 0.869

ACAGACGAAGGAGCCGCAAAGTAGTTCTTAAGGGATGAATAATCCCTCAATATAAATATCTCTCACTTATTTAAA
cleaved RNA product abundance [2]: 0.195

ACAGACGAAGGAGCCGCAAAGTAGTTTTTAAGGGATGAATAATCCCTCAATATAAATATCTCTCACTTATTTAAA
cleaved RNA product abundance [2]: 0.37

ACAGACGAAGGAGCCGCAAAGTATTTATTAAGGGATGAATAATCCCTCAATATAAATATCTCTCACTTATTTAAA
cleaved RNA product abundance [1]: 0.85
cleaved RNA product abundance [2]: 0.594

ACAGACGAAGGAGCCGCAAAGTCGTTATTAAGGGATGAATAATCCCTCAATATAAATATCTCTCACTTATTTAAA
cleaved RNA product abundance [2]: 0.9

ACAGACGAAGGAGCCGCAAATAAATAATTAAGGGATGAATAATCCCTCAATATAAATATCTCTCACTTATTTAAA
cleaved RNA product abundance [2]: 0.336

ACAGACGAAGGAGCCGCAAATAAATTATTAAGGAATGAATAATCCCTCAATATAAATATCTCTCACTTATTTAAA
cleaved RNA product abundance [2]: 0.195

ACAGACGAAGGAGCCGCAAATAAATTATTAAGGGAAGAATAATCCCTCAATATAAATATCTCTCACTTATTTAAA
cleaved RNA product abundance [2]: 0.369

ACAGACGAAGGAGCCGCAAATAAATTATTAAGGGATGAATAATACCTCAATATAAATATCTCTCACTTATTTAAA
cleaved RNA product abundance [2]: 0.0858

ACAGACGAAGGAGCCGCAAATAAATTATTAAGGGATGAATAATCCCCCAATATAAATATCTCTCACTTATTTAAA
cleaved RNA product abundance [2]: 0.381

ACAGACGAAGGAGCCGCAAATAAATTATTAAGGGATGAATAATCCCTCAACATAAATATCTCTCACTTATTTAAA
cleaved RNA product abundance [2]: 0.396

ACAGACGAAGGAGCCGCAAATAAATTATTAAGGGATGAATAATCCCTCAATATAAATATCTCTCACTTATTTAAA
cleaved RNA product abundance [1]: 0.807
cleaved RNA product abundance [2]: 0.801
